{"source": "paper PMC6614801", "target": "T1, SuhB (inositol mono-phosphatase SuhB), wild type (E. coli), P0ADG4", "T1 chain": "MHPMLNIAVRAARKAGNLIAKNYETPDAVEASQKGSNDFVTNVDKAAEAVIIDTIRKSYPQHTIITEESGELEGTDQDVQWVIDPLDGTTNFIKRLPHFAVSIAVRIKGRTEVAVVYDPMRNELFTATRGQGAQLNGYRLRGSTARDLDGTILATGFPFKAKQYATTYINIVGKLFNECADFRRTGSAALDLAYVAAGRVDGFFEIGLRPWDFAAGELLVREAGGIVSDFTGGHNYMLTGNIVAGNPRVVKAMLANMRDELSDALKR", "assay": "SEC-MALS; 60 μl (15 nmol) of SuhB on Superdex 200 increase 10/300; 20 mM HEPES pH 7.5, 50 mM NaCl, 0.02% (w/v) NaN3", "conditions": "remark: other sources report otherwise"}
{"binder": "SuhB (inositol mono-phosphatase SuhB), wild type, P0ADG4 1-267 (natural protein) MHPMLNIAVRAARKAGNLIAKNYETPDAVEASQKGSNDFVTNVDKAAEAVIIDTIRKSYPQHTIITEESGELEGTDQDVQWVIDPLDGTTNFIKRLPHFAVSIAVRIKGRTEVAVVYDPMRNELFTATRGQGAQLNGYRLRGSTARDLDGTILATGFPFKAKQYATTYINIVGKLFNECADFRRTGSAALDLAYVAAGRVDGFFEIGLRPWDFAAGELLVREAGGIVSDFTGGHNYMLTGNIVAGNPRVVKAMLANMRDELSDALKR", "values": [{"measurement": "stoichiometry N", "value": 2}]}
